US20250296984A1, “THERAPEUTIC AND DIAGNOSTIC AGENTS AND USES THEREOF” (priority 2022, published 2025)

Key:
[1] = target: T1, US28 protein from HCMV strain Merlin on HEK Phoenix Ampho cells (Human cytomegalovirus, UniProt P69332, S330G); test: Flow cytometry, HEK Phoenix Ampho cells transfected with US28 (Merlin); format: binding; conditions: mock subtracted, fold-difference minus 1, sign = increase or decrease
T1 construct: expressed in transfected cells; host or cells: HEK Phoenix Ampho (ATCC-CRL-3213)
Procedure: (§1) ii. Materials: • Cells: HEK Phoenix Ampho (ATCC-CRL-3213), p 21. • Staining buffer: PBS with 1% BSA, 2 mM EDTA. • Plasmid: Encoding US28 protein from different HCMV strains: DB; TB40/E; Merlin; and VHL/E. • Blocking: Human TruStain FcX™ (ref 422302). • Live Dead: Invitrogen™ eBioscience™ Fixable Viability Dye eFluor™ 780 (ref 13539140). • Primary antibodies: 7B1F3 (6.76 nM=1 μg/ml); hum7B1F3 (6.76 nM=1 μg/ml).
(§2) The day before transfection, HEK Ampho cells were seeded in a 1×6-well plate with 1×10^6 live cells/well, 2 mL/well. Seeded 4 wells for HEKPhoenix_plasmids. Seeded 2 wells for HEKPhoenix_Mock transfected. Incubated the cells in a 37° C. incubator with >80% relative humidity and 5% CO2.
(§3) After 1 day, cells will have adhered and reached >60% confluency. Removed 700 uL media from each well prior to transfection. Allowed X-tremeGENE™ HP DNA Transfection Reagent, DNA and diluent Opti-MEM® I Reduced Serum Medium to warm to +15° C. to +25° C., and vortexed gently. Placed 100 μL diluent in a sterile tube for each condition. Added 1 μg plasmid DNA. Pipetted gently to mix (DNA was not added for the mock condition): • DB (683.3 ng/μL): 1.46 μL • TB40/E (742.05 ng/μL): 1.35 μL • Merlin (70.78 ng/μL): 14.13 μL • VHL/E (51.87 ng/μL): 19.28 μL
(§4) Added 3 μL X-tremeGENE™ HP DNA Transfection Reagent to the diluted DNA. (3:1 ratio of reagent to DNA). Pipetted gently to mix, then: • 1. […]

[2] = system: HEKPhoenix_Mock transfected cells; test: Flow cytometry, HEKPhoenix Mock transfected cells; format: binding, human; conditions: antibody concentration 6.76 nM, Myc tag detection
Procedure: as §1, §2, §3, §4

[3] = target: T2, US28 protein from HCMV strain TB40/E on HEK Phoenix Ampho cells (Human cytomegalovirus, UniProt P69332, A8T/D15E/E18L/V24T); test: Flow cytometry, HEK Phoenix Ampho cells transfected with US28 (TB40/E); format: binding; conditions: mock subtracted, fold-difference minus 1, sign = increase or decrease
T2 construct: expressed in transfected cells; host or cells: HEK Phoenix Ampho (ATCC-CRL-3213)
Procedure: as §1, §2, §3, §4

[4] = target: T3, US28 protein from HCMV strain DB on HEK Phoenix Ampho cells (Human cytomegalovirus, UniProt P69332, D170N/D19A); test: Flow cytometry, HEK Phoenix Ampho cells transfected with US28 (DB); format: binding; conditions: mock subtracted, fold-difference minus 1, sign = increase or decrease
T3 construct: expressed in transfected cells; host or cells: HEK Phoenix Ampho (ATCC-CRL-3213)
Procedure: as §1, §2, §3, §4

B1: 7B1F3-Myc: 7B1F3 labelled with a Myc tag (antibody, V domains shown)
VH: EVQLQQSGAELAKPGASVKMSCKASGYTFTNYWMHWVKQRPGQGLEWIGYVNPRTGYTEYNQKFKDKATLTADKSSRTAYMQLSSLTSEDSAVYSCARILNGTGFAYWGQGTLVTVSA
VL: DIVLTQSPSSLTVSVGEKFTMSCKSSQSLLYSSNQKNYLAWYQQKPGQSPKLLIYWASTRESGVPDRFTGSGSGTDFTLAISSVKPEDLAIYYCQQYYSFPLTFGAGTKLEIK
Variation in binding, relative to determined binding to US28 as encoded by VHL/E; Merlin [1]: +0.21 | Preliminary Binding Data, Mock [2]: 0.06 | Variation in binding, relative to determined binding to US28 as encoded by VHL/E; TB40/E [3]: +0.14 | Variation in binding, relative to determined binding to US28 as encoded by VHL/E; DB [4]: +0.64
